{
  "source": "patent US20120141376A1",
  "about": "“PROSTATE SPECIFIC TRANSCRIPTS AND THE USE THEREOF FOR PROSTATE CANCER THERAPEUTICS AND DIAGNOSTICS” (priority 2006, published 2012)",
  "molecules": {"B1": {"name": "No. 8: DATAS fragment; ataxin 2-like; exon extension (nucleic acid, listed as Homo sapiens)", "DNA": "GTAGCAGGGCAGCAGACTTGGGAGAACGCGGGGGATACATCCGGCCCACTGGAAGAAAAGGGGGAGCTGTAGGATGGTTACTGCTGGTCAACAGCAGTGAGTACAAGGGCCTTACTCAAAACAGCAAGAAAGTTTACACACTATACAACCAGAGTCACCAACTTAAATGTCTAGAAGCTCAAGGCAGGTAACACAAGCAGGTAAATGGCCTCATGGGCATCATCGACAACTGGAATGCTTAAAGGAGTGGCAGGGATTCTGTTCCAGTCAACTCAAGCTACGCAGCAAGGCAAGCTCAGTTGACAGAATTTCCTGTAATTCAAAAGAAACTAAAAATTTTCTATGGCTTCTATTGATTTATTTATTTAGAGACAGGGTATCGCTCTGTTCCCC"}, "B2": {"name": "No. 18: DATAS fragment; golgi SNAP receptor complex member 2; exon extension (nucleic acid, listed as Homo sapiens)", "DNA": "GGCCTTAGGGGCACGAGGATGTGAATCGACCTACTACTTAATATAATGGCTGTGAGAAAAGGCCTCTTTCCTTTCCTTTCCACTTTTGCTCCACCCTATCAGGAGCCAGAAAGGCCTGATGGTGACAAGGTGTGAACCGTGTGGACAGTCCTGCACACAGGGCTCACTGTGGACACCTTCCCAGGGCACGCATCAGCTGTGTGAACAAAGCCACCAAAGCCATTCTTTCCCTCCCCCGC"}, "B3": {"name": "No. 5: DATAS fragment; N-acetyltransferase 6; exon extension (nucleic acid, listed as Homo sapiens)", "DNA": "GTAAAGGCATGTGGAATCCAGGGGCAGCTTTGGCTGGCACGCAGGATCCAGAGTCAGCTCAGCTGGGCTGGTACTCAGGATCAGCTCCATCCGGTGTGTAGGGTCTAGTGTAGGGGTCAGCTTGGCTGGGCCAGGGCTCAGAGTCAGCTCTTGCCTATGCACAGGATCCAGGTTCAGCTGAGTCAGGCTGGGAGCCAAGGTCACCTGCTGCTAGGTTGCAGGTGGCTCAGTGCCAGGCTGGAGGTTAAGACCCCAGTCTCCAGGCAGTAGCATCTCTTCAGACCACAGTGGCTCTCCTCATGTTGATGCTGGCCTCTGGGATGTTCCGCGTCCTAGCTCCGCACAGCTGGGTATCTCACTCAGTCGCCACCTCGGCCTCCCAACA"}, "B4": {"name": "No. 10: DATAS fragment; transferrin receptor (p90, CD71); novel exon (nucleic acid, listed as Homo sapiens)", "DNA": "GTGGCGAGGCGGTTCGGGACGGAGGACGCGCTAGTGTTCTTCTGTGTGGCAGTTCAGAATGATGGATCAAGCTAGATCAGCATTCTCTAACTTGTTTGGTGGAGAACCATTGTCATATACCCGGTTCAGCCTGCTCTCC"}, "B5": {"name": "No. 15: DATAS fragment; GenBank Human mRNA AF116698 (intronic hit); genomic hit (nucleic acid, listed as Homo sapiens)", "DNA": "CGGCGCACCTGGTACGTGGTGTATGTTCCATTTGTGCTGGCCACGGTGATGATGATGATGATGCCATCTCTCCGGCTACACTGCGAGCACAGATCACAGCTCTCTGTAGCTGATGCTGGCTCTACCCACTGTATTCGGG"}, "B6": {"name": "No. 6: DATAS fragment; transmembrane protease, serine 2; exon extension (nucleic acid, listed as Homo sapiens)", "DNA": "GCCGAGGTCTTCCCTAAGGACAGGGAGACTTGTTGAGCTCCCAGTGTTGCCTGCAGCTCTCGCAGGGAGAGCACACTTCCCTCCCTGAGACCTCCACACGCACTACACAGATGGTCACAGCCCTATTCTCCAGCCCTGCCCCCGTCAGCTCATCCCAGCACCAACCCCTCTCCTGGGAAACCTGGATTCTCCTTACAACTGGCGGTGCCTGTGCTGAATGCAGCTCTGGAGTTCAGCTTCAGGGAAAGAAATTCCCAGCTCTGAAACTATAGGGCTCTATCAGTGCCATGGAATCCCCCTCTTATTCACCCAACGGCTTGGTTCTGCTGAACCAATTTCCCACTCCTCACTGAACCCCACCCAGGACACACAGGCGCCTGTTTCCCCTCTGGCATGCACACACTCTTCTGGAGCACACGCGACCCTCCCTAGGCCGCCTGCTTCTCGGCTCCCCTGCACA"}, "B7": {"name": "No. 21: DATAS fragment; GenBank human mRNA AK123820; exon extension (nucleic acid, listed as Homo sapiens)", "DNA": "GGCGGCAGGTCTAATCTGGCACACTTGCTAACTTCTAATAAAGAATCAAATGGTCTTCCAACTCACATAATGACTAATTCTAAAGCATGCAACCTCAAAGTACTACATTCTCCCTGTTCTAGAAATACAACCCTAGAGGGCCAGTCTTCCTTCAGCATTCAAATATTGAGTAGAACAACTGAACTGTAAGGTTCAACTAAAGGAATGCAACTGTGACTTGAGCTGTGGAACGGCTATGGCCTAAGTCAAGAATTCTCAACCTCCCAC"}, "B8": {"name": "No. 14: DATAS fragment; zinc finger protein 142 (clone pHZ-49); exon extension (nucleic acid, listed as Homo sapiens)", "DNA": "CGGACCAGGACAAAATCATGACGATGCTCCATCCCAAGCCTTCCAGGTTACAAACCGCCTTTCCAGTTCGCTGGCTCTTATGATCCAGCTCCTGCCCGACGATGTGGACACTGTCATCACCTCCATTTTACAGATAGGAAAGCTGAGGCCCAGAGAAGCGAAGCGACTGTGTCTGTCCAAGACCACGCGCCCTCCTCCCTGTC"}, "B9": {"name": "No. 13: DATAS fragment; ATPase, Class V, type 10A; exon extension (nucleic acid, listed as Homo sapiens)", "DNA": "GGAGGAGGTCGGCATCACCAGTAACAGGAATCCCTCTCCCTTTGAAGGCAGTGATGGCCAGCGACTTTGCAGTGCCGAAATTCCGATACCTGGAGAGGCTCTTGATTCTTCACGGGCATTGGTGCTACTCCCGACTTGCCAACATGGTGCTGTACTTCTTCTACAAAAACACAATGTTCGTGGGCCTCCTGTTTTGGTTCCAGTTTTTCTGTGGCTTCTCTGCATCTACCATGATTGACCAGTGGTATCTAATCTTCTTTAATCTGCTCTTCTCGTCACCTCCAACGA"}, "B10": {"name": "No. 11: DATAS fragment; cadherin-like 23; novel exon (nucleic acid, listed as Homo sapiens)", "DNA": "GACACCCTAGCTGCAAGGGAGGTTAGAAAAAATGAGGGACAGGATTATCATGGTCAGCATATTACTTGGGGGCCAGATATATCACTTCCCACACAAAAGCAGGCCTCTGTCAGTGAGGAAGAAGTGGAGAATGGATTTGGGGTGGGCATCTGACAGCATTTGCCACACTGCCCTCCCCAATCCTAATGCAGGCCAGTCAACGCACCACCCCCACTCCCCACCCACACTCCAACCCCCACAGTCCTAGGGTCTCTCAGGGAGACCATCGGTGGAATCCATAACATTCTAAGACCCTGCAGTTTGTAGGCAAAATCAGGCTTCCTTTGGGTGCCCCCG"}, "B11": {"name": "No. 9: DATAS fragment; protein kinase C, zeta; novel exon (nucleic acid, listed as Homo sapiens)", "DNA": "GGGCAAAGGATGTTGCCCCTGTCCTGAAGGCTGTCGCCCGATCGCTCTATCCAAGGCTGCCCTGGGGCAGCGTCACCTGGGGGTCCTGCGGGGGCTTCTCAGCACAGCATCCAGCACTGCCACCTAGTGTGTTCCCGTCACGTCTCCTCCCCCCG"}, "B12": {"name": "No. 1: DATAS fragment; chromosome 14 open reading frame 122; exon extension (nucleic acid, listed as Homo sapiens)", "DNA": "CTACCGGGGGAAGGGTCAAAGAGCGTGCCGAAGCGCTGGAGGGAGCTTCACGGACGCGAGCTAGGCACCGGCTCGCCTAATCCGGTACTAATCCGGCTTGCTGCTTCCCGTCCAGGCCTCGCTCGCCATGGGGGAGGTGGAGATCTCGGCCCTGGCCTACGTGAAGATGTGCCTGCATGCTGCCCGGTACCCACACGCCGCAGTCAACGGGCTGTTTTTGGCGCCAGCGCCGCGGTCTGGAGAATGCCTGTGCCTCACCGACTGTGTGCCCCTCTTCCACAGCCACCTGGACCTGTCCGTCATGTTGGAGGTCGCCCTCAACCAGGTGCCTCCGTTGCAT"}, "B13": {"name": "No. 19: DATAS fragment; GenBank human mRNA AK054845; novel exon (nucleic acid, listed as Homo sapiens)", "DNA": "GGGGACAGGCAGAGGTTGCACTGCACTCCAGCCTGGGTGACAGATCAAGATTCTGTCTCAAGTAATAATAATGATGATGATGATGATGATGATGATGATGATAATAACACACCTTGTTAATGTTAATTCACTGTGTTAAATCAATTAACTCATTTTCTCATAATTACCCTTGAACGAGTAAGTTATTGACATTCTCTCCATGGGAAAAAAAACCCTTGGAGAAAGGTAACTTGAATATGGCCAAATGGGCAATTTGGATAGAACTGGGATTTGAACCTAGGACATCTGATTCCACATCCTTTTCATGAGCCACAATGCTCTACATGTGGTTTTATTTCTTGGATCACATGTAACACATCCATAAAAGTGCCTCCCCCCG"}},
  "test_system": "HLA class I (e.g. HLA-A2) expressing adherent 293T cells",
  "experiment": "CTL assay on reverse transfected microarray (caspase activation, fluorescent Z-VAD)",
  "format": "cell-based, human",
  "details": "HLA-matched CD8+ T cells from prostate cancer patients incubated 4 hours on array; red fluorescent signal = positive response",
  "excerpt": "Additional patient samples were procured for the cytotoxic T Lymphocyte (CTL) assay. […] (PBMC) were isolated from blood drawn from patients with relevant clinical parameters, and with patient consent. Clinical data generally included patent history, physiopathology, and parameters relating to prostate cancer physiology. PBMCs were collected from 6 prostate cancer patients that met the study requirements. Duplicate samples were obtained from a single patient.\nThe 192 selected DATAS fragments were PCR amplified out of the library vector and directionally cloned into a eukaryotic expression vector down stream from staggered start site initiation codons. This configuration allows the DATAS fragment to be expressed in all the open reading frames, which is required because the correct reading frame is not always readily apparent.\nPlasmid preparations were performed and the expression vectors containing the selcted DATAS fragment clones were re-arrayed into 96 well plates, which were subsequently used to spot glass slides for use in the CTL assay previously disclosed in International Patent Application No. PTC/US2005/032392, the disclosure of which is incorporated by reference in its entirety.\nA design file containing the desired microarray positions of the DATAS expression vectors was uploaded into a high resolution scanner. The expression vectors containing the DATAS fragments were mixed with gelatin and lipofectamine and then spotted in duplicate in a pattern that matched the design file uploaded into the high resolution microarray scanner. The following positive controls, negative controls and experimental samples were spotted on the array.\nThe spotted arrays were then overlaid with HLA class I (e.g. HLA-A2) expressing adherent 293T cells and cultured for 48-72 hours to allow cells time to express vector-encoded transcripts.\nThe assay for CTL reactivity was then performed by incubating HLA-matched CD8^+ T cells from normal and prostate cancer patients on cultured reverse transfected microarray slides for 4 hours. Prior to incubation with the array, T cells from normals or patients may need to be expanded in vitro, to a small or large extent, to enhance the frequency of responding T cells. An inhibitor of activated caspase, fluorescence-tagged (sulfo-Rhodamine)-Z-VAD, is present throughout the cell incubation to bind caspases that become activated when antigen expressing adherent cells on certain spots are induced to die by the CTL. The slides are then washed to remove unbound fluorescent Z-VAD and 2-color (Green and Red) fluorescence images of the microarray slides are obtained with the microarray scanner.\nAnalysis and confirmation of data is then determined by visual inspection of the scanned image. The success of the reverse transfection is evaluated by observing green fluorescence at EGFP vector control spots. Then the fluorescence threshold(s) are adjusted on microarray scanner as necessary to establish relevant background and positive control signal intensities. […] Using the coordinate locations for the spots, the cDNAs yielding positive responses are identified.",
  "data": [
    {"molecule": "B1", "values": [
      {"measurement": "Patient ID with positive hit", "result": "MSMPB"}
    ]},
    {"molecule": "B2", "values": [
      {"measurement": "Patient ID with positive hit", "result": "FRJY5"}
    ]},
    {"molecule": "B3", "values": [
      {"measurement": "Patient ID with positive hit", "result": "EYGRT"}
    ]},
    {"molecule": "B4", "values": [
      {"measurement": "Patient ID with positive hit", "result": "MSMPB"}
    ]},
    {"molecule": "B5", "values": [
      {"measurement": "Patient ID with positive hit", "result": "MSMPB"}
    ]},
    {"molecule": "B6", "values": [
      {"measurement": "Patient ID with positive hit", "result": "EYGRT"}
    ]},
    {"molecule": "B7", "values": [
      {"measurement": "Patient ID with positive hit", "result": "EYGRT"}
    ]},
    {"molecule": "B8", "values": [
      {"measurement": "Patient ID with positive hit", "result": "MSMPB"}
    ]},
    {"molecule": "B9", "values": [
      {"measurement": "Patient ID with positive hit", "result": "MSMPB"}
    ]},
    {"molecule": "B10", "values": [
      {"measurement": "Patient ID with positive hit", "result": "MSMPB; P72"}
    ]},
    {"molecule": "B11", "values": [
      {"measurement": "Patient ID with positive hit", "result": "EYGRT"}
    ]},
    {"molecule": "B12", "values": [
      {"measurement": "Patient ID with positive hit", "result": "EYGRT"}
    ]},
    {"molecule": "B13", "values": [
      {"measurement": "Patient ID with positive hit", "result": "EYGRT"}
    ]}
  ]
}
